The values that follow come from patent US20030049246A1.

The target of test [1] is SHH (chick, endogenous in cerebellar cortical explants) (chick) (UniProt Q91035). Briefly: cell-based or functional assay.
The target in test [2] is SHH (mouse, endogenous in purified granule neuron precursor aggregates) (mouse) (UniProt Q62226). Briefly: cell-based or functional assay.
SHH (mouse, endogenous in purified granule neuron precursor aggregates) (mouse), sequence (Q62226 25-198 limits assumed): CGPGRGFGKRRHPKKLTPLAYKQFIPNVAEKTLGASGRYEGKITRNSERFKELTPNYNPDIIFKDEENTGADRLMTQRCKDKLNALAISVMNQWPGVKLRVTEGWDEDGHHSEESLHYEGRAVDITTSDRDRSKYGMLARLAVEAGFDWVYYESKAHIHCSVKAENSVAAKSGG

SHH (chick, endogenous in cerebellar cortical explants) (chick), sequence (Q91035 27-200 limits assumed): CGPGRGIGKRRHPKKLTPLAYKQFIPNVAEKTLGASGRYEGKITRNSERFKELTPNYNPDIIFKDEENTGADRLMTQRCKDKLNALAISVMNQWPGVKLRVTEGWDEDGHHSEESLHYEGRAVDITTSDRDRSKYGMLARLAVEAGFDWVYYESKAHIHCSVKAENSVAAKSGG

In the case of “blocking anti-SHH monoclonal antibody 5E1”, in test [1], the fold decrease in BrdU incorporation inside D10 chick cerebellar explants (96 h) was 3 to 4 fold. Besides, the fold decrease in proliferation of purified mouse granule neuron aggregates in test [2] was in the range of 3 to 4 fold.
